The series deals with the molecule itself. Nature of the series: non-reducing SDS-PAGE; 3 µg HpHtrA preincubated in 50 mM HEPES pH 7.5 without or with increasing concentrations of CaCl2; sample buffer without β-mercaptoethanol; Coomassie-stained.

We go through one protein from PMC4895972, “Calcium binding protects E-cadherin from cleavage by Helicobacter pylori HtrA” (Gut Pathogens, 2016).

B1: recombinant HtrA (high temperature requirement A) from H. pylori strain 26695, wildtype (enzyme)
chain: GNIQIQSMPKVKERVSVPSKDDTIYSYHDSIKDSIKAVVNISTEKKIKNNFIGGGVFNDPFFQQFFGDLGGMIPKERMERALGSGVIISKDGYIVTNNHVIDGADKIKVTIPGSNKEYSATLVGTDSESDLAVIRITKDNLPTIKFSDSNDISVGDLVFAIGNPFGVGESVTQGIVSALNKSGIGINSYENFIQTDASINPGNSGGALIDSRGGLVGINTAIISKTGGNHGIGFAIPSNMVKDTVTQLIKTGKIERGYLGVGLQDLSGDLQNSYDNKEGAVVISVEKDSPAKKAGILVWDLITEVNGKKVKNTNELRNLIGSMLPNQRVTLKVIRDKKERAFTLTLAERKNPNKKETISAQNGAQGQLNGLQVEDLTQETKRSMRLSDDVQGVLVSQVNENSPAEQAGFRQGNIITKIEEVEVKSVADFNHALEKYKGKPKRFLVLDLNQGYRIILVK
notes: also called HpHtrA; H. pylori HtrA; source: E. coli BL21, purified (GSH-Sepharose, GST-tag removed with PreScission protease, dialyzed against 50 mM Tris pH 7.5)
Consider B1, for which the binding result was “binds”.
